The results in this text go back to IntAct's records for PubMed 21187394.

To fix the notation:
B1: Protein BRASSINOSTEROID … 1 (Arabidopsis thaliana (Mouse-ear cress)), O22476 (parent)
chain: MKTFSSFFLSVTTLFFFSFFSLSFQASPSQSLYREIHQLISFKDVLPDKNLLPDWSSNKNPCTFDGVTCRDDKVTSIDLSSKPLNVGFSAVSSSLLSLTGLESLFLSNSHINGSVSGFKCSASLTSLDLSRNSLSGPVTTLTSLGSCSGLKFLNVSSNTLDFPGKVSGGLKLNSLEVLDLSANSISGANVVGWVLSDGCGELKHLAISGNKISGDVDVSRCVNLEFLDVSSNNFSTGIPFLGDCSALQHLDISGNKLSGDFSRAISTCTELKLLNISSNQFVGPIPPLPLKSLQYLSLAENKFTGEIPDFLSGACDTLTGLDLSGNHFYGAVPPFFGSCSLLESLALSSNNFSGELPMDTLLKMRGLKVLDLSFNEFSGELPESLTNLSASLLTLDLSSNNFSGPILPNLCQNPKNTLQELYLQNNGFTGKIPPTLSNCSELVSLHLSFNYLSGTIPSSLGSLSKLRDLKLWLNMLEGEIPQELMYVKTLETLILDFNDLTGEIPSGLSNCTNLNWISLSNNRLTGEIPKWIGRLENLAILKLSNNSFSGNIPAELGDCRSLIWLDLNTNLFNGTIPAAMFKQSGKIAANFIAGKRYVYIKNDGMKKECHGAGNLLEFQGIRSEQLNRLSTRNPCNITSRVYGGHTSPTFDNNGSMMFLDMSYNMLSGYIPKEIGSMPYLFILNLGHNDISGSIPDEVGDLRGLNILDLSSNKLDGRIPQAMSALTMLTEIDLSNNNLSGPIPEMGQFETFPPAKFLNNPGLCGYPLPRCDPSNADGYAHHQRSHGRRPASLAGSVAMGLLFSFVCIFGLILVGREMRKRRRKKEAELEMYAEGHGNSGDRTANNTNWKLTGVKEALSINLAAFEKPLRKLTFADLLQATNGFHNDSLIGSGGFGDVYKAILKDGSAVAIKKLIHVSGQGDREFMAEMETIGKIKHRNLVPLLGYCKVGDERLLVYEFMKYGSLEDVLHDPKKAGVKLNWSTRRKIAIGSARGLAFLHHNCSPHIIHRDMKSSNVLLDENLEARVSDFGMARLMSAMDTHLSVSTLAGTPGYVPPEYYQSFRCSTKGDVYSYGVVLLELLTGKRPTDSPDFGDNNLVGWVKQHAKLRISDVFDPELMKEDPALEIELLQHLKVAVACLDDRAWRRPTMVQVMAMFKEIQAGSGIDSQSTIRSIEDGGFSTIEMVDMSIKEVPEGKL
partner: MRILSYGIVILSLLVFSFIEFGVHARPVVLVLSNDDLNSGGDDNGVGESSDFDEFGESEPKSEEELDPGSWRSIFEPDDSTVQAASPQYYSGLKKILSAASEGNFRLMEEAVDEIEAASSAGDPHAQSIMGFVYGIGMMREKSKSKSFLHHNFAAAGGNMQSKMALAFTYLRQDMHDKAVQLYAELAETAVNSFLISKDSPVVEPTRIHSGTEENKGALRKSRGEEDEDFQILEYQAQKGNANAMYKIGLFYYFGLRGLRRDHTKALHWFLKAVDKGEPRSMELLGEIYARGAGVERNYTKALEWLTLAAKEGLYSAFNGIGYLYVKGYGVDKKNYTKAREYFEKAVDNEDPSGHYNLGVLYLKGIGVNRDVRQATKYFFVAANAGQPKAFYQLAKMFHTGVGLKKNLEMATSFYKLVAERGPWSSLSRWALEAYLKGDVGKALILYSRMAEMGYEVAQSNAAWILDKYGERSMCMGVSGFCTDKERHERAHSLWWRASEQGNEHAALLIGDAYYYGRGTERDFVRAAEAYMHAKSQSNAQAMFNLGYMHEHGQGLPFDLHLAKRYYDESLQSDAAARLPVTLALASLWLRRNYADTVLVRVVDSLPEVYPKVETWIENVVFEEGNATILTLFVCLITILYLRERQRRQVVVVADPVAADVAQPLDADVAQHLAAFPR

Variants of B1 are the subject of the assay. The settings on record: with hrd3a_arath HRD3A.
With S662F, the “effect of a mutation on the interaction” value is given as “increasing interaction strength”. On to C69Y, for which the “effect of a mutation on the interaction” value is recorded as “increasing interaction strength”.
